Experimental data published in patent US20080044360A1 (COLLAGEN MEDICAL, published 2008).
Bridge positions count the residues as written; N and C are the ends. Square brackets hold non-standard residues; d marks the D form. Primed or numbered codes have the meaning given here. Side chains are listed from the residue outwards. Ends that are not written are not given here. * marks the point of attachment. Phe(4-tBu) = CC(C)(C)c1ccc(C[C@H](N)C(=O)O)cc1; Tyr(3-Cl) = N[C@@H](Cc1ccc(O)c(Cl)c1)C(=O)O; Bip = N[C@@H](Cc1ccc(-c2ccccc2)cc1)C(=O)O; Tyr(3-I) = N[C@@H](Cc1ccc(O)c(I)c1)C(=O)O; Dip = N[C@H](C(=O)O)C(c1ccccc1)c1ccccc1; Phe(4-NH2) = Nc1ccc(C[C@H](N)C(=O)O)cc1; Gd^T(3) = GdDTPA attached via thiourea; d1Nal = N[C@H](Cc1cccc2ccccc12)C(=O)O; Lys(Gd^T)Gd^T = not defined here; Pen = CC(C)(S)[C@H](N)C(=O)O; Gd^G = not defined here; Gd^T = not defined here; Gd^T″ = GdDTPA-thiourea; Cbz = O=C(OCc1ccccc1)*; Dap = NC[C@H](N)C(=O)O

target: T1, human collagen type I, acid soluble, extracted from placenta (Sigma C7774) (human, UniProt P02452 162-1218; P08123 80-1119); assay: dried collagen assay
T1 construct: tissue extract, gelled and dried in wells; also called dried human collagen; h-Collagen
T1 sequence (P02452 162-1218 limits assumed, chain 1 of 2): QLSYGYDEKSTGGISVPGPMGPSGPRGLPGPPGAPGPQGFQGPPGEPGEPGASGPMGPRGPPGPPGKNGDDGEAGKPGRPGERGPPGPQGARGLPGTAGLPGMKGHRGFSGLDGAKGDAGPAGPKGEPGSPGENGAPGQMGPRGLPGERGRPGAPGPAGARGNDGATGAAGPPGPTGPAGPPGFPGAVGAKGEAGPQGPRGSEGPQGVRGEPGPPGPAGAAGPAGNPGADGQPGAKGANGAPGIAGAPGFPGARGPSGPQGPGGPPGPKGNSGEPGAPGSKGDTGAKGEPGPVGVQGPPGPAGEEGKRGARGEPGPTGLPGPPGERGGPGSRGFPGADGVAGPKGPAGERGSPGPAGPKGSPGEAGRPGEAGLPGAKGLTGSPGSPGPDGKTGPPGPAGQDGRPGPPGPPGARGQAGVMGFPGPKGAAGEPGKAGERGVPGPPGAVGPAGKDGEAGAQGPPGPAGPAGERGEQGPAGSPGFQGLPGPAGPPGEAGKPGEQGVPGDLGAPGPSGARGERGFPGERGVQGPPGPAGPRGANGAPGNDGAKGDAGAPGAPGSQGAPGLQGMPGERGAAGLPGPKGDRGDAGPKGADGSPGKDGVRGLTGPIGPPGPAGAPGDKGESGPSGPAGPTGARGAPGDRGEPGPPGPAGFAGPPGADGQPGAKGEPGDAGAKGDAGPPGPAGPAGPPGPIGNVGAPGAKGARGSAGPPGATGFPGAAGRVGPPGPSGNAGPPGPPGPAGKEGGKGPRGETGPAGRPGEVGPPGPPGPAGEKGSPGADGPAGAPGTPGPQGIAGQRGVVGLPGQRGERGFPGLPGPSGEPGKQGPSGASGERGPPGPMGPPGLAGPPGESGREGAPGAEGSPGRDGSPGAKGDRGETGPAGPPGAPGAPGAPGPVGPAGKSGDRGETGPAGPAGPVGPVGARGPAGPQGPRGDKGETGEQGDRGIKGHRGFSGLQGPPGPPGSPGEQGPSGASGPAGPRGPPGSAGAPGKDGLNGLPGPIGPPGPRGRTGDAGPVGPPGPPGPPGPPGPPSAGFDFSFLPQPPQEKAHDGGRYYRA
T1 sequence (P08123 80-1119 limits assumed, chain 2 of 2): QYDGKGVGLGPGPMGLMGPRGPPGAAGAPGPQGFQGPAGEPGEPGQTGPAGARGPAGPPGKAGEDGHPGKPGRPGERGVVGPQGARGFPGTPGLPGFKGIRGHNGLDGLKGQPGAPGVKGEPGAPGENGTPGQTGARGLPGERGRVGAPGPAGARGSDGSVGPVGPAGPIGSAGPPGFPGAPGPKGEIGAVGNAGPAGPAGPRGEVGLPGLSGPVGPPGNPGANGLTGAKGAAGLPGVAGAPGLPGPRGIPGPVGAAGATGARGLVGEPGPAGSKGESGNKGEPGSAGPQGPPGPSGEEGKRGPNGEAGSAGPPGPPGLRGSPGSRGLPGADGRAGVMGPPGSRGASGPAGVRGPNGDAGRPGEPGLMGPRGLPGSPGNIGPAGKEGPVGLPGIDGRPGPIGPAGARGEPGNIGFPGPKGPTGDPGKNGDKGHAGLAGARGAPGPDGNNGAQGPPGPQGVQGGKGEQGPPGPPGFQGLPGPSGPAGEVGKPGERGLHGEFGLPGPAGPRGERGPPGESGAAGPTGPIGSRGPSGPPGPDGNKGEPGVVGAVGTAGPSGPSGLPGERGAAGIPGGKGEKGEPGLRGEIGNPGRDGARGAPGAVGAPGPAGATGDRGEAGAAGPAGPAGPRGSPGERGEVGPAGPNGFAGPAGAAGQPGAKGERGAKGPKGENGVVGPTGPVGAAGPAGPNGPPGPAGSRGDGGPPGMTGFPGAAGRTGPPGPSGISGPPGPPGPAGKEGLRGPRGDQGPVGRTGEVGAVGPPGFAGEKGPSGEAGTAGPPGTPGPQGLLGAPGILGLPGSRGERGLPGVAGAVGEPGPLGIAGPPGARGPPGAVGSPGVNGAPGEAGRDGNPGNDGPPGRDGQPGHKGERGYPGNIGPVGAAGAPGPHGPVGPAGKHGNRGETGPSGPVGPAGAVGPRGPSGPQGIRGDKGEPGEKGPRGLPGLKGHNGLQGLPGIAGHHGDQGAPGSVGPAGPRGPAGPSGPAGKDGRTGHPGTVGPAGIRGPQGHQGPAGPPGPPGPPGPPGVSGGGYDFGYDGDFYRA

Binder | % bound [%]
{Gd^G}-DWTCS[dR]DEYTWHCNYE (disulfide 4-13 (inferred); not fully specified (C-terminus); reading uncertain) [Compound ID 821] | 56
{Gd^T″}-DWTC[Tyr(Bn,3-Cl)]GDEYTWHCNYE (disulfide 4-13 (inferred); not fully specified (C-terminus)) [Compound ID 825] | 61
{Gd^T″}-DWTCS[dS]DEYTWHCNYE (disulfide 4-13 (inferred); not fully specified (C-terminus)) [Compound ID 836] | 13
{Gd^T}-DWTCSGDEYTWYCNYE (disulfide 4-13 (inferred); not fully specified (C-terminus); reading uncertain) [Compound ID 842] | 23
{Gd^T″}-DWTCS[dY]DEYTWHCNYE (disulfide 4-13 (inferred); not fully specified (C-terminus)) [Compound ID 829] | 20
{Gd^G}-DWTCRGDEYTWHCNYE (disulfide 4-13 (inferred); not fully specified (C-terminus); reading uncertain) [Compound ID 822] | 47
{Gd^T″}-DWTC[Phe(4-tBu)]GDEYTWHCNYE (disulfide 4-13 (inferred); not fully specified (C-terminus)) [Compound ID 827] | 41
{Gd^T}-DWTCS[dL]DEYTWHCNYE (disulfide 4-13 (inferred); not fully specified (C-terminus); reading uncertain) [Compound ID 847] | 16
{Gd^T″}-GK([Gly-Gd^T″])WH[dC]TTK(Gd^T″)FPHHYCLY[Bip] (disulfide 5-14) [Compound ID 1019] | 14
{Gd^T(3)}-GQWHCTTRFPHH[d1Nal]CLYG (disulfide 5-14; not fully specified (C-terminus)) [Compound ID 904] | 0
{Gd^T″}-GK([Gly-Gd^T″])WHCTTYFPHHYCL[Dip]G (disulfide 5-14 (inferred); not fully specified) [Compound ID 967] | 11
{Gd^T(3)}-GQWHCTTRFPHHY[Pen]LYG (disulfide 5-14; not fully specified (C-terminus)) [Compound ID 906] | 13
{Gd^G}-PWTCSGDEYAWHCNY[dE] (disulfide 4-13 (inferred); not fully specified (C-terminus); reading uncertain) [Compound ID 824] | 12
{Gd^T″}-DWTCSGDEYYWHCNYE (disulfide 4-13 (inferred); not fully specified (C-terminus)) [Compound ID 834] | 22
{Gd^T″}-DWTCS[dA]DEYTWHCNYE (disulfide 4-13 (inferred); not fully specified (C-terminus)) [Compound ID 835] | 17
{Gd^T″}-DWTCSGDEYTWHCN[Tyr(3-I)]E (disulfide 4-13 (inferred); not fully specified (C-terminus)) [Compound ID 831] | 50
{Gd^T″}-DWTC[Phe(4-CO2H)]GDEYTWHCNYE (disulfide 4-13 (inferred); not fully specified (C-terminus)) [Compound ID 828] | 52
{Gd^T}-DWTCSGDE[Tyr(3-I)]TWHCNYE (disulfide 4-13 (inferred); not fully specified (C-terminus); reading uncertain) [Compound ID 846] | 31
{Gd^T}-DWTCSGDEYTWHCNYE (disulfide 4-13 (inferred); not fully specified (C-terminus); reading uncertain) [Compound ID 848] | 35
{Gd^T″}-GQWTCSGDEYAWHCNY[dE] (disulfide 5-14 (inferred); not fully specified (C-terminus)) [Compound ID 832] | 12
{Gd^T″}-GQWTCSGDEYTWACNYE (disulfide 5-14 (inferred); not fully specified (C-terminus)) [Compound ID 833] | 13
{Gd^T}-GQWACSGDEYTWHCNYE (disulfide 5-14 (inferred); not fully specified (C-terminus); reading uncertain) [Compound ID 840] | 15
{Gd^T″}-GQWHCTTD[Phe(4-NH2)](Gd^T″)PHHYCLYG (disulfide 5-14 (inferred)) [Compound ID 885] | 16
{Gd^T″}-GK([Gly-Gd^T″])WHCTTLFPHHVCLYG (disulfide 5-14 (inferred)) [Compound ID 966] | 14
{Gd^T″}-GQWHCTDRFPHHYCLYG (disulfide 5-14 (inferred)) [Compound ID 936] | 9
Cbz-GQWHCTK(Gd^T″)RFPHHYCLYG (disulfide 5-14 (inferred)) [Compound ID 940] | 9
{Gd^T″}-GK([Gly-Gd^T″])WHCTTYFPHH[Dip]CLYG (disulfide 5-14 (inferred); not fully specified) [Compound ID 968] | 77

target: T2, rat collagen, acid soluble, type I, rat tail (Upstate 08-115) (rat, UniProt P02454 152-1207; P02466 86-1125); assay: dried collagen assay
T2 construct: tissue extract, gelled and dried in wells; also called dried rat collagen
T2 sequence (P02454 152-1207, chain 1 of 2): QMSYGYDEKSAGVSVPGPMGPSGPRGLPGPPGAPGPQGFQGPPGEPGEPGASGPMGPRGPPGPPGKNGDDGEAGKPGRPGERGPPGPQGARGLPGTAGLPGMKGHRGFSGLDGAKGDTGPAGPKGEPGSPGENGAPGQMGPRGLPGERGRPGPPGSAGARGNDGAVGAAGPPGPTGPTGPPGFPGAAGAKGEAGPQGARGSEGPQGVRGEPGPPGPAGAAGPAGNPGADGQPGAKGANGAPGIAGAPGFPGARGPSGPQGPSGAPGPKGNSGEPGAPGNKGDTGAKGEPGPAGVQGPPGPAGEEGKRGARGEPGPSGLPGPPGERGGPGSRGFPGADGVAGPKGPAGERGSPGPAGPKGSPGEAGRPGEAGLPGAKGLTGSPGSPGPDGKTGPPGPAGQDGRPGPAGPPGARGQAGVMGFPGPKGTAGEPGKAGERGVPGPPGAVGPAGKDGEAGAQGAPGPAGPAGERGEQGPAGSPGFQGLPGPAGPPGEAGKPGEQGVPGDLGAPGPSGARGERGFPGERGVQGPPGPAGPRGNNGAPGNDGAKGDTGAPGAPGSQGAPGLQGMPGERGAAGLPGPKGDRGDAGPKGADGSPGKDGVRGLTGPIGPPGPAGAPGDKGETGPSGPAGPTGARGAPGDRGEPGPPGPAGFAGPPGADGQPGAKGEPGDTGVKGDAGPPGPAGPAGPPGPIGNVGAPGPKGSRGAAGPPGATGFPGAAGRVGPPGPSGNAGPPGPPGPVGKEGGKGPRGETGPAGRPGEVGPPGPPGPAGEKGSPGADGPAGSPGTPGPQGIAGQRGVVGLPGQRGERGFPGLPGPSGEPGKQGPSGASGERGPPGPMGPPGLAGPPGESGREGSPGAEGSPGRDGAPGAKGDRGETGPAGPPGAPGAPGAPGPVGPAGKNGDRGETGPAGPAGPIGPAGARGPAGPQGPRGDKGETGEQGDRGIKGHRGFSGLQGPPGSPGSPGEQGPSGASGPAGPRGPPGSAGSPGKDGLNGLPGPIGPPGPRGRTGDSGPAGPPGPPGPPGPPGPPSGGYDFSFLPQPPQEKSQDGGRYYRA
T2 sequence (P02466 86-1125, chain 2 of 2): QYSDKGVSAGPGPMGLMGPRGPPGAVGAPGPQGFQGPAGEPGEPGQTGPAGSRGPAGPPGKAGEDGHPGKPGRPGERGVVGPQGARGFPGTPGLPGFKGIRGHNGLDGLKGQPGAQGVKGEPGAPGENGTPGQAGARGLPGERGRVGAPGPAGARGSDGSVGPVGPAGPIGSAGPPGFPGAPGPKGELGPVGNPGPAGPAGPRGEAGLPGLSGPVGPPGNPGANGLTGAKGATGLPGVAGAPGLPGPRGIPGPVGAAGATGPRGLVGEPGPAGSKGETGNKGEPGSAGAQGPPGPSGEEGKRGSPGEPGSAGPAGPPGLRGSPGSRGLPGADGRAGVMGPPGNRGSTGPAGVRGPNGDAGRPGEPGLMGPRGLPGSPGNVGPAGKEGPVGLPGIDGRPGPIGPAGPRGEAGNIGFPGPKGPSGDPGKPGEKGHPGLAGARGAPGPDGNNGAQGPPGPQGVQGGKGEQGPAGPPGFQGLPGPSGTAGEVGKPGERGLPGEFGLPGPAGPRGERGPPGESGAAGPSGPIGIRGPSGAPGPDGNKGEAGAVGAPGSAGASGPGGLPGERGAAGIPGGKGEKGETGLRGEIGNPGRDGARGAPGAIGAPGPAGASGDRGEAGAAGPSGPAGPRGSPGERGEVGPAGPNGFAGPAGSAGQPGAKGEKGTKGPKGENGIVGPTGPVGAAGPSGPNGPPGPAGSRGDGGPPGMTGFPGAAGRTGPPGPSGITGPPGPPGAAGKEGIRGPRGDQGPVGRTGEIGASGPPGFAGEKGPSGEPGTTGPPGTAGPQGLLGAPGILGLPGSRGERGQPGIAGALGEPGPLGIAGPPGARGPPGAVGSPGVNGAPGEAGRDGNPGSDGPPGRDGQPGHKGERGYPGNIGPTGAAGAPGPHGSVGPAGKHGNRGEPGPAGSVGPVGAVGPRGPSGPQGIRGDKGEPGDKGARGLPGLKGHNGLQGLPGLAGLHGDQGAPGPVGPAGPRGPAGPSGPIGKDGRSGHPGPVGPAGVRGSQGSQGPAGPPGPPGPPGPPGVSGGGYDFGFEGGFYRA

Binder | % bound [%]
{Gd^G}-DWTCS[dR]DEYTWHCNYE (disulfide 4-13 (inferred); not fully specified (C-terminus); reading uncertain) [Compound ID 821] | 29
{Gd^T″}-DWTC[Tyr(Bn,3-Cl)]GDEYTWHCNYE (disulfide 4-13 (inferred); not fully specified (C-terminus)) [Compound ID 825] | 63
{Gd^T}-DWTCSGDEYTWYCNYE (disulfide 4-13 (inferred); not fully specified (C-terminus); reading uncertain) [Compound ID 842] | 9
{Gd^T″}-DWTCS[dY]DEYTWHCNYE (disulfide 4-13 (inferred); not fully specified (C-terminus)) [Compound ID 829] | 21
{Gd^G}-DWTCRGDEYTWHCNYE (disulfide 4-13 (inferred); not fully specified (C-terminus); reading uncertain) [Compound ID 822] | 20
{Gd^T″}-DWTC[Phe(4-tBu)]GDEYTWHCNYE (disulfide 4-13 (inferred); not fully specified (C-terminus)) [Compound ID 827] | 20
{Gd^T(3)}-GK([Gly-Gd^T(3)])WHCTTYFPHH[Bip]CLYG (disulfide 5-14) [Compound ID 951] | 32
{Gd^T″}-GQWHCTTDFPH[Dap]YCLYG (disulfide 5-14) [Compound ID 886] | 13
{Gd^G}-PWTCSGDEYAWHCNY[dE] (disulfide 4-13 (inferred); not fully specified (C-terminus); reading uncertain) [Compound ID 824] | 0
{Gd^T″}-DWTCSGDEYYWHCNYE (disulfide 4-13 (inferred); not fully specified (C-terminus)) [Compound ID 834] | 9
{Gd^T″}-DWTCS[dA]DEYTWHCNYE (disulfide 4-13 (inferred); not fully specified (C-terminus)) [Compound ID 835] | 9
{Gd^T″}-DWTCSGDEYTWHCN[Tyr(3-I)]E (disulfide 4-13 (inferred); not fully specified (C-terminus)) [Compound ID 831] | 21
{Gd^T″}-DWTC[Phe(4-CO2H)]GDEYTWHCNYE (disulfide 4-13 (inferred); not fully specified (C-terminus)) [Compound ID 828] | 20
{Gd^T}-DWTCSGDE[Tyr(3-I)]TWHCNYE (disulfide 4-13 (inferred); not fully specified (C-terminus); reading uncertain) [Compound ID 846] | 9
{Gd^T}-DWTCSGDEYTWHCNYE (disulfide 4-13 (inferred); not fully specified (C-terminus); reading uncertain) [Compound ID 848] | 9
{Gd^T″}-GQWHCTTD[Tyr(3-Cl)]PHHYCLYG (disulfide 5-14 (inferred); not fully specified (C-terminus)) [Compound ID 895] | 0
{Gd^T″}-K(Gd^T″)K(Lys(Gd^T)Gd^T)WHCYTYFPHHYCVYG (disulfide 5-14 (inferred); reading uncertain) [Compound ID 1003] | 47
{Gd^T″}-GQWHCTTRFPHH[dR]CLYG (disulfide 5-14 (inferred); not fully specified (C-terminus)) [Compound ID 902] | 2
{Gd^T″}-GQWHCT[dR]RFPHHYCLYG (disulfide 5-14 (inferred); not fully specified (C-terminus)) [Compound ID 900] | 1
{Gd^T″}-GQWHCT[dS]RFPHHYCLYG (disulfide 5-14 (inferred); not fully specified (C-terminus)) [Compound ID 898] | 3
{Gd^T″}-GQWHCTTRFPHH[dT]CLYG (disulfide 5-14 (inferred); not fully specified (C-terminus)) [Compound ID 905] | 2
{Gd^T″}-GQWHCT[dN]RFPHHYCLYG (disulfide 5-14 (inferred); not fully specified (C-terminus)) [Compound ID 897] | 1
